This test deals with RSV protein F (fusion glycoprotein), recombinant or purified (human respiratory syncytial virus, strain not stated) (UniProt P03420). Description: SPR (Biacore 3000), Fab over immobilised recombinant antigen. Background: In SPR one partner is held on a chip, and binding of the other changes the refractive index at the surface.

Consider 1 substance from US20100040606A1.

pKd: −log10 of the molar value.

As a reminder, the pKd is the negative decadic logarithm of the Kd, by convention in mol/L. The term koff denotes a measure of how fast the partners let go of each other. What is called kon is the second-order rate constant of association. For “Fab fragment derived from commercially available Palivizumab (Synagis)”, the pKd is 8.42, the koff is 0.000757 s⁻¹, the kon was determined as 200000 M⁻¹ s⁻¹ and the t1/2 is 15 min.
